Publication PMC11508141

Molecular target: T1, DJ-1 protein with the 6X-His tag, Q99497
T1 chain: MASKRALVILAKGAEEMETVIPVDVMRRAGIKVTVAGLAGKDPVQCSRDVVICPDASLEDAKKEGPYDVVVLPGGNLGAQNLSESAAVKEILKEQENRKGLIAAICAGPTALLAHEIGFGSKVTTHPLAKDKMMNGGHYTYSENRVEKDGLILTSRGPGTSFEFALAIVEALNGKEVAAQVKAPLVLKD
Assay: cross-linking; purified DJ-1 treated with 25 mM DSS at 25 °C for 30 min, with or without P1 or P2, then SDS-PAGE (12% gel)
Conditions: remark: other sources report otherwise

B1: DJ-1 protein with the 6X-His tag, Q99497 1-189 (enzyme)
chain: T1 chain
B1 gave a stoichiometry N of 2.
